Tests used:
Assay in all cases: holdup assay
Settings in all cases: plain residues with an end cap or a label only (N-terminal biotin on a linker: (peg)3)
MAGI2_1, Q86UL8 = molecular target: T1, MAGI2_1, Q86UL8
T1 sequence (Q86UL8 12-111, limits assumed, looked up): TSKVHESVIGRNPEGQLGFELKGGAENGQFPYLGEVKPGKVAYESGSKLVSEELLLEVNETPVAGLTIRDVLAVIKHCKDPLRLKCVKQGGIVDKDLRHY

NHERF1_1, O14745 = molecular target: T2, NHERF1_1, O14745
T2 sequence (O14745 9-104, limits assumed, looked up): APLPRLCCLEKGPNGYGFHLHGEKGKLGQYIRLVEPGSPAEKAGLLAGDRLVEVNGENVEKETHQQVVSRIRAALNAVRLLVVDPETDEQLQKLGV

GRIP1_1, Q9Y3R0 = molecular target: T3, GRIP1_1, Q9Y3R0
T3 sequence (Q9Y3R0 48-146, limits assumed, looked up): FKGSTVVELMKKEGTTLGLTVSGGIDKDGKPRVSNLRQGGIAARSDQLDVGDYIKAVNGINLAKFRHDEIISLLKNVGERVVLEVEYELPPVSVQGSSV

USH1C_2, Q9Y6N9 = molecular target: T4, USH1C_2, Q9Y6N9
T4 sequence (Q9Y6N9 206-303, limits assumed, looked up): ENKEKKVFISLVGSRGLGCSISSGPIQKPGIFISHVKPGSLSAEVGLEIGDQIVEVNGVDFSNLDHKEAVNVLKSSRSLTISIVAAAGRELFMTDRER

PARD3B_2, Q8TEW8 = molecular target: PARD3B_2, Q8TEW8
PDZD2_1, O15018 = molecular target: T5, PDZD2_1, O15018
T5 sequence (O15018 80-192, limits assumed, looked up): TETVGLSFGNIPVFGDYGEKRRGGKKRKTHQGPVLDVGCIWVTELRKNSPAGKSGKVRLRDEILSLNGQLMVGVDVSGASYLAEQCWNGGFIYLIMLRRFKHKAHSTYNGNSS

PTPN13_2, Q12923 = molecular target: PTPN13_2, Q12923
DLG3_1, Q92796 = molecular target: T6, DLG3_1, Q92796
T6 sequence (Q92796 125-227, limits assumed, looked up): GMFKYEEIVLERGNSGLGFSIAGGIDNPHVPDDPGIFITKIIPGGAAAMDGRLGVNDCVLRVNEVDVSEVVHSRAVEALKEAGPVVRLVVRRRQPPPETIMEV

LNX1_2, Q8TBB1 = molecular target: LNX1_2, Q8TBB1
SHROOM3, Q8TF72 = molecular target: T7, SHROOM3, Q8TF72
T7 sequence (Q8TF72 20-120, limits assumed, looked up): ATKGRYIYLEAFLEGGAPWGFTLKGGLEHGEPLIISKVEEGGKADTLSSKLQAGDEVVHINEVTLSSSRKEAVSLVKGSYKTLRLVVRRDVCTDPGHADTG

PDZD4, Q76G19 = molecular target: T8, PDZD4, Q76G19
T8 sequence (Q76G19 125-224, limits assumed, looked up): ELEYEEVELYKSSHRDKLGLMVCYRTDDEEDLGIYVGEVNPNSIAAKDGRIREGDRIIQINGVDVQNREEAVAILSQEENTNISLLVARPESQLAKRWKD

MAGI3_3, Q5TCQ9 = molecular target: MAGI3_3, Q5TCQ9
MAGI3_6, Q5TCQ9 = molecular target: MAGI3_6, Q5TCQ9
LMO7, Q8WWI1 = molecular target: LMO7, Q8WWI1
IL16_2, Q14005 = molecular target: IL16_2, Q14005
PTPN4, P29074 = molecular target: T9, PTPN4, P29074
T9 sequence (P29074 512-599, limits assumed, looked up): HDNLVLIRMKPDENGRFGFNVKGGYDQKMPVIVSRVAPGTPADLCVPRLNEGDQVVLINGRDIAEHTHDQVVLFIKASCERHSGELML

DVL1, O14640 = molecular target: T10, DVL1, O14640
T10 sequence (O14640 246-333, limits assumed, looked up): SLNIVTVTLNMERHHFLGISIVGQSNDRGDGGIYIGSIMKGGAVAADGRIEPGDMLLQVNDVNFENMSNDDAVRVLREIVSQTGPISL

MAGI1_5, Q96QZ7 = molecular target: MAGI1_5, Q96QZ7
INTU, Q9ULD6 = molecular target: T11, INTU, Q9ULD6
T11 sequence (Q9ULD6 180-273, limits assumed, looked up): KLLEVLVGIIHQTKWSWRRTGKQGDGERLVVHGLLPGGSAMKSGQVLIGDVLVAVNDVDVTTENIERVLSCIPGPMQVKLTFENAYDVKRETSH

NHERF4_3, Q86UT5 = molecular target: NHERF4_3, Q86UT5
Inadl_7, Q8NI35 = molecular target: Inadl_7, Q8NI35
LIMK1, P53667 = molecular target: LIMK1, P53667
PARD6G, Q9BYG4 = molecular target: T12, PARD6G, Q9BYG4
T12 sequence (Q9BYG4 153-261, limits assumed, looked up): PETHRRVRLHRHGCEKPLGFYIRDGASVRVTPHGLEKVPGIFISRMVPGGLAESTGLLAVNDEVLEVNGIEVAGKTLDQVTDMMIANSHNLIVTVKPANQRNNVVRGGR

PDZRN3_2, Q9UPQ7 = molecular target: T13, PDZRN3_2, Q9UPQ7
T13 sequence (Q9UPQ7 414-513, limits assumed, looked up): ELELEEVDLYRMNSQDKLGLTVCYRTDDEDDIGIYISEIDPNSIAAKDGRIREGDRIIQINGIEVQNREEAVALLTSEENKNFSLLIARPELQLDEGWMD

PTPN13_2, Q12923, sequence (Q12923 1363-1462): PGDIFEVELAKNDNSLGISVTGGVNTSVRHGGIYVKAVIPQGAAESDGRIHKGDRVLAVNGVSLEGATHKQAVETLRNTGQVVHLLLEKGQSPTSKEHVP
LMO7, Q8WWI1, sequence (Q8WWI1 1037-1138): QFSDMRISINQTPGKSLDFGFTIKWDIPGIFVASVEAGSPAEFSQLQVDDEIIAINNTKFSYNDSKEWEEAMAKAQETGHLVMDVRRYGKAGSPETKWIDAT
MAGI3_3, Q5TCQ9, sequence (Q5TCQ9 572-655): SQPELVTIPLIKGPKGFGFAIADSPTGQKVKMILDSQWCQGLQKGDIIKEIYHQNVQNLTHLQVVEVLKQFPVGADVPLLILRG
IL16_2, Q14005, sequence (Q14005 350-450): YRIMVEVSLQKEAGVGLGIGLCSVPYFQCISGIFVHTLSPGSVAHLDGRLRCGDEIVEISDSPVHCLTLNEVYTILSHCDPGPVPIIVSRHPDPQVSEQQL
LIMK1, P53667, sequence (P53667 155-268): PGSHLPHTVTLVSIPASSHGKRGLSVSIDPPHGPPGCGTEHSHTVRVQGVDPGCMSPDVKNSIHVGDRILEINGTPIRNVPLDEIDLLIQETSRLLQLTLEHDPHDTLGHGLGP
LNX1_2, Q8TBB1, sequence (Q8TBB1 371-470): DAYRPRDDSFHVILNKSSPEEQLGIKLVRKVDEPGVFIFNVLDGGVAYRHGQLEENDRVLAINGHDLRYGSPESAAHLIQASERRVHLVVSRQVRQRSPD
Inadl_7, Q8NI35, sequence (Q8NI35 1219-1332): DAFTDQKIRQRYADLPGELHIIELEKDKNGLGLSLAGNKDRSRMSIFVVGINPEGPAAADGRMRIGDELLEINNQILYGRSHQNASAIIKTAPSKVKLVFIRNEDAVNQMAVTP
MAGI3_6, Q5TCQ9, sequence (Q5TCQ9 1014-1103): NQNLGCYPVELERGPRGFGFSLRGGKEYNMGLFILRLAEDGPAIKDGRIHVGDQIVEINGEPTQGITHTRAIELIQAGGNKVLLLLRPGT
PARD3B_2, Q8TEW8, sequence (Q8TEW8 376-471): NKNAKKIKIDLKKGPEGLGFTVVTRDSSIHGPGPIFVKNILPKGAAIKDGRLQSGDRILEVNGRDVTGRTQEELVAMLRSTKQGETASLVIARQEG
NHERF4_3, Q86UT5, sequence (Q86UT5 325-412): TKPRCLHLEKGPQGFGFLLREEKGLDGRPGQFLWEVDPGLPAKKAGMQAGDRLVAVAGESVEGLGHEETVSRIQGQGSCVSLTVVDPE
MAGI1_5, Q96QZ7, sequence (Q96QZ7 986-1098): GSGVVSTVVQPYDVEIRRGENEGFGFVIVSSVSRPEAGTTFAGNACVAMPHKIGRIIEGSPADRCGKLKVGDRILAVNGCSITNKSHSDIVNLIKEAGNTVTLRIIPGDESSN

B1: SARS-CoV-E, P59637 (peptide)
chain: NLNSSEGVPDLLV
- pKd (MAGI2_1, Q86UL8): below the threshold
- pKd (NHERF1_1, O14745): below the threshold
- pKd (GRIP1_1, Q9Y3R0): below the threshold
- pKd (USH1C_2, Q9Y6N9): below the threshold
- pKd (PARD3B_2, Q8TEW8): below the threshold
- pKd (PDZD2_1, O15018): below the threshold
- pKd (PTPN13_2, Q12923): below the threshold
- pKd (DLG3_1, Q92796): below the threshold
- pKd (LNX1_2, Q8TBB1): 4.06
- pKd (SHROOM3, Q8TF72): below the threshold
- pKd (PDZD4, Q76G19): below the threshold
- pKd (MAGI3_3, Q5TCQ9): 3.85
- pKd (MAGI3_6, Q5TCQ9): below the threshold
- pKd (LMO7, Q8WWI1): below the threshold
- pKd (IL16_2, Q14005): below the threshold
- pKd (PTPN4, P29074): below the threshold
- pKd (DVL1, O14640): below the threshold
- pKd (MAGI1_5, Q96QZ7): below the threshold
- pKd (INTU, Q9ULD6): below the threshold
- pKd (NHERF4_3, Q86UT5): below the threshold
- pKd (Inadl_7, Q8NI35): below the threshold
- pKd (LIMK1, P53667): below the threshold
- pKd (PARD6G, Q9BYG4): below the threshold
- pKd (PDZRN3_2, Q9UPQ7): below the threshold
